Source: patent US20210071139A1

Experiments:
Thoc2 = Thoc2 (UniProt B1AZI6); test: anti-TOX IP from EL4 nuclear extract, LC-MS/MS, MiST
Taf6 = Taf6 (UniProt Q62311); test: as above
Chtop = Chtop (UniProt Q9CY57); test: as above
Aldh18a1 = Aldh18a1 (UniProt Q9Z110); test: as above
Eif4h = Eif4h (UniProt Q9WUK2); test: as above
Ash2l = Ash2l (UniProt Q91X20); test: as above
Snrpb2 = Snrpb2 (UniProt Q9CQI7); test: as above
C1qc = C1qc (UniProt Q02105); test: TOX IP-MS, EL4 nuclear extract, MiST
Nusap1 = Nusap1 (UniProt Q9ERH4); test: TOX IP-MS, EL4 nuclear extract, MiST
Acsl4 = Acsl4 (UniProt Q9QUJ7); test: TOX IP-MS, EL4 nuclear extract, MiST
Pusl1 = Pusl1 (UniProt A2ADA5); test: TOX IP-MS, EL4 nuclear extract, MiST
Prrc2a = Prrc2a (UniProt Q7TSC1); test: TOX IP-MS, EL4 nuclear extract, MiST
Jade2 = Jade2 (UniProt Q6ZQF7); test: TOX IP-MS, EL4 nuclear extract, MiST
Rbm42 = Rbm42 (UniProt Q91V81); test: TOX IP-MS, EL4 nuclear extract, MiST
Eif5 = Eif5 (UniProt P59325); test: TOX IP-MS, EL4 nuclear extract, MiST
Acad9 = Acad9 (UniProt Q8JZN5); test: TOX IP-MS, EL4 nuclear extract, MiST
Sap130 = Sap130 (UniProt Q8BIH0); test: TOX IP-MS, EL4 nuclear extract, MiST
Dlst = Dlst (UniProt Q9D2G2); test: TOX IP-MS, EL4 nuclear extract, MiST
Ccar1 = Ccar1 (UniProt Q8CH18); test: TOX IP-MS, EL4 nuclear extract, MiST
Cacybp = Cacybp (UniProt Q9CXW3); test: TOX IP-MS, EL4 nuclear extract, MiST
env = test: TOX IP-MS, EL4 nuclear extract, MiST
Prrc2c = Prrc2c (UniProt Q3TLH4); test: TOX IP-MS, EL4 nuclear extract, MiST
Tox4; Tox3 = test: TOX IP-MS, EL4 nuclear extract, MiST
Fxr1 = Fxr1 (UniProt Q61584); test: TOX IP-MS, EL4 nuclear extract, MiST
Ppie = Ppie (UniProt Q9QZH3); test: TOX IP-MS, EL4 nuclear extract, MiST
Ing4 = Ing4 (UniProt Q8C0D7); test: TOX IP-MS, EL4 nuclear extract, MiST
Zfp219 = Zfp219 (UniProt Q6IQX8); test: TOX IP-MS, EL4 nuclear extract, MiST

**Q.** For TOX (from UniProt Q66JW3 1-526), which Abundance (Thoc2) is on record?
**A.** 1.6e-06

**Q.** And the MiST Score (Thoc2)?
**A.** 0.859

**Q.** And the Reproducibility (Thoc2)?
**A.** 0.9

**Q.** And the Specificity (Thoc2)?
**A.** 0.848

**Q.** And the Abundance (Taf6)?
**A.** 1.15e-06

**Q.** And the MiST Score (Taf6)?
**A.** 0.864

**Q.** And the Reproducibility (Taf6)?
**A.** 0.578

**Q.** What about the Specificity (Taf6) of the same substance?
**A.** 1

**Q.** And the Abundance (Chtop)?
**A.** 0.000479

**Q.** What about the MiST Score (Chtop) of the same substance?
**A.** 0.862

**Q.** And the Reproducibility (Chtop)?
**A.** 0.936

**Q.** And the Specificity (Chtop)?
**A.** 0.837

**Q.** What about the Abundance (Aldh18a1) of the same substance?
**A.** 9.69e-06

**Q.** What about the MiST Score (Aldh18a1) of the same substance?
**A.** 0.887

**Q.** What about the Reproducibility (Aldh18a1) of the same substance?
**A.** 0.702

**Q.** And the Specificity (Aldh18a1)?
**A.** 0.979

**Q.** And the Abundance (Eif4h)?
**A.** 1.07e-05

**Q.** And the MiST Score (Eif4h)?
**A.** 0.869

**Q.** And the Reproducibility (Eif4h)?
**A.** 0.595

**Q.** And the Specificity (Eif4h)?
**A.** 1

**Q.** What about the Abundance (Ash2l) of the same substance?
**A.** 4.44e-06

**Q.** And the MiST Score (Ash2l)?
**A.** 0.879

**Q.** What about the Reproducibility (Ash2l) of the same substance?
**A.** 0.629

**Q.** What about the Specificity (Ash2l) of the same substance?
**A.** 1

**Q.** And the Abundance (Snrpb2)?
**A.** 7.46e-05

**Q.** What about the MiST Score (Snrpb2) of the same substance?
**A.** 0.858

**Q.** What about the Reproducibility (Snrpb2) of the same substance?
**A.** 0.558

**Q.** And the Specificity (Snrpb2)?
**A.** 1

**Q.** What does the source list for Tox (from UniProt Q66JW3 1-526)?
**A.** Abundance (C1qc): 0.000821; MiST Score (C1qc): 0.976; Reproducibility (C1qc): 0.943; Specificity (C1qc): 1; Abundance (Nusap1): 2.24e-05; MiST Score (Nusap1): 0.899; Reproducibility (Nusap1): 0.966; Specificity (Nusap1): 0.877; Abundance (Acsl4): 2.9e-06; MiST Score (Acsl4): 0.968; Reproducibility (Acsl4): 0.914; Specificity (Acsl4): 1; Abundance (Pusl1): 1.19e-05; MiST Score (Pusl1): 0.925; Reproducibility (Pusl1): 0.776; Specificity (Pusl1): 1; Abundance (Prrc2a): 7.11e-07; MiST Score (Prrc2a): 0.916; Reproducibility (Prrc2a): 0.862; Specificity (Prrc2a): 0.948; Abundance (Jade2): 4.26e-06; MiST Score (Jade2): 0.937; Reproducibility (Jade2): 0.815; Specificity (Jade2): 1; Abundance (Rbm42): 9.15e-06; MiST Score (Rbm42): 0.969; Reproducibility (Rbm42): 0.919; Specificity (Rbm42): 1; Abundance (Eif5): 1.08e-05; MiST Score (Eif5): 0.985; Reproducibility (Eif5): 0.971; Specificity (Eif5): 1; Abundance (Acad9): 7.35e-06; MiST Score (Acad9): 0.919; Reproducibility (Acad9): 0.846; Specificity (Acad9): 0.959; Abundance (Sap130): 5.37e-06; MiST Score (Sap130): 0.971; Reproducibility (Sap130): 0.926; Specificity (Sap130): 1; Abundance (Dlst): 0.000104; MiST Score (Dlst): 0.934; Reproducibility (Dlst): 0.941; Specificity (Dlst): 0.938; Abundance (Ccar1): 1.49e-06; MiST Score (Ccar1): 0.962; Reproducibility (Ccar1): 0.897; Specificity (Ccar1): 1; Abundance (Cacybp): 3.38e-05; MiST Score (Cacybp): 0.944; Reproducibility (Cacybp): 0.837; Specificity (Cacybp): 1; Abundance (env): 0.000113; MiST Score (env): 0.977; Reproducibility (env): 0.946; Specificity (env): 1; Abundance (Prrc2c): 7.52e-07; MiST Score (Prrc2c): 0.905; Reproducibility (Prrc2c): 0.71; Specificity (Prrc2c): 1; Abundance (Tox4; Tox3): 1.98e-05; MiST Score (Tox4; Tox3): 0.936; Reproducibility (Tox4; Tox3): 0.812; Specificity (Tox4; Tox3): 1; Abundance (Fxr1): 1.59e-05; MiST Score (Fxr1): 0.915; Reproducibility (Fxr1): 0.924; Specificity (Fxr1): 0.919; Abundance (Ppie): 1.28e-05; MiST Score (Ppie): 0.979; Reproducibility (Ppie): 0.953; Specificity (Ppie): 1; Abundance (Ing4): 0.00024; MiST Score (Ing4): 0.987; Reproducibility (Ing4): 0.977; Specificity (Ing4): 1; Abundance (Zfp219): 8.26e-06; MiST Score (Zfp219): 0.902; Reproducibility (Zfp219): 0.836; Specificity (Zfp219): 0.94
